Laboratory results as given in patent KR20230148435A.
Values belong to the binder of their own block, whether it stands above or below them.

Key:
[1] = target: HGF protein (hepatocyte growth factor) (UniProt P14210); test: ELISA, HGF coated on plate, YYB-101 at 1 ug/mL as positive control
[2] = target: HGF protein (hepatocyte growth factor) (UniProt P14210); test: ELISA, HGF coated on plate, 24 h culture supernatant of YYB-103-1XX+YYB-101 scFv CAR-T cells

Sequence of UniProt P14210 (P14210 32-728 limits assumed): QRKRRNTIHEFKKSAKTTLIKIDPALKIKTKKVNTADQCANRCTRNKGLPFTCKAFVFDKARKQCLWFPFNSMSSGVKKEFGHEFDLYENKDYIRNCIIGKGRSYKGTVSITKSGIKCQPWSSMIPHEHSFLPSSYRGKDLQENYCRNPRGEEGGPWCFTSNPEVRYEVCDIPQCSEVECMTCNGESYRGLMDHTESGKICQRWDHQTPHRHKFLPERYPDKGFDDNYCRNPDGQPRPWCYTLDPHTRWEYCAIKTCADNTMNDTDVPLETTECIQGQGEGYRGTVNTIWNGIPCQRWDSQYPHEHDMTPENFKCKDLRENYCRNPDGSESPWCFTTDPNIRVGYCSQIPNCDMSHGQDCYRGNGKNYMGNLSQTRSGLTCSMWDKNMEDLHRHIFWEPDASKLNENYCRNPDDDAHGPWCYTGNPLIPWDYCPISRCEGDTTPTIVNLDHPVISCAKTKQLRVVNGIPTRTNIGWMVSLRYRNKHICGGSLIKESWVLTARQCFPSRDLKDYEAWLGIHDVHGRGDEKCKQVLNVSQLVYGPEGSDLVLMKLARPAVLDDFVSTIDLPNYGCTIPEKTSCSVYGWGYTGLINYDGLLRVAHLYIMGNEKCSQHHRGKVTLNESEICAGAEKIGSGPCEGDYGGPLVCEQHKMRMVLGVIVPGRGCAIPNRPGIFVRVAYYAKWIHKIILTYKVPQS

OD, 450nm (HGF 결합) [1]: 3.02 OD 450 nm
B1: YYB-101 (HGF neutralising antibody) (antibody, human IgG4 S228P, kappa, V domains shown)
VH: EVQLVESGGGLVQPGGSLRLSCAASGFTFSTYYMSWVRQAPGKGLEWVAYIGTSSGTTYYADSVKGRFTISRDGSKNTLYLQMNSLRAEDTAVYYCARGLGRINLWGQGTLVTVSS
VL: DIQMTQSPSSLSASVGDRVTITCRASQGISNILAWYQQKPGKAPKLLIYGASNLESGVPSRFSGSGSGTDFTLTISSLQPEDFATYYCQSGYYSRGATFGQGTKVEIKR

OD, 450nm (HGF 결합) [2]: 2.63 OD 450 nm
B2: YYB-101 Single Chain Variable Fragment (scFv) (scFv)
scFv: DIQMTQSPSSLSASVGDRVTITCRASQGISNILAWYQQKPGKAPKLLIYGASNLESGVPSRFSGSGSGTDFTLTISSLQPEDFATYYCQSGYYSRGATFGQGTKVEIKGGGGSGGGGSGGGGSEVQLVESGGGLVQPGGSLRLSCAASGFTFSTYYMSWVRQAPGKGLEWVAYIGTSSGTTYYADSVKGRFTISRDGSKNTLYLQMNSLRAEDTAVYYCARGLGRINLWGQGTLVTVSS
